Measured values from the nanobody polyreactivity screen of Harvey et al. (2022).

Assay: yeast display, Sf9 membrane polyspecificity reagent, FACS + sequencing; frameworks hold sequencing errors
In short: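 Synthetic nanobody libraries on Saccharomyces cerevisiae BJ5465 were galactose-induced for 36–48 hours, stained 1 hour at 4 °C with 10% biotinylated, detergent-solubilized Sf9 membrane reagent and enriched on streptavidin microbeads. FACS then separated cells into low and high (top ~1%) gates by anti-HA (expression) and streptavidin (reagent binding) fluorescence. Genes were colony-PCR amplified, MiSeq 2 × 250 sequenced and CDR-length filtered. A clone's polyreactivity label is that of its gate of origin.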
In the case of “QVQLVESGGGLVQAGGSLRLSCAASGFIFKWNAMGWYRQAPGKERELVAAITSGGGTYYADSVKGRFTISRDNAKNTVYLQMNSLKPEDTAVYYCAALGRYWPARRFDYWGQGTQVTVSS”, the “polyreactivity (PSR sort gate)” value is reported as “high polyreactivity”.
In the case of “QVQLVESGGGLVQAGGSLRLSCAASGFIFKYYAMGWYRQAPGKERELVAAIRSGGGTNYADSVKGRFTISRDNAKNTVYLQMNSLKPEDTAVYYCAARGYTSYKHFGYWGQGTQVTVSS”, the “polyreactivity (PSR sort gate)” value is reported as “high polyreactivity”.
In the case of “QVQLVESGGGLVQAGGSLRLSCAASGFIFKYYAMGWYRQAPGKERELVAAITGSGGRTYYADSVKGRFTISRDNAKNTVYLQMNSLKPEDTAVYYCAADLGGNSRLDYWGQGTQVTVSS”, the “polyreactivity (PSR sort gate)” value is reported as “high polyreactivity”.
For “QVQLVESGGGLVQAGGSLRLSCAASGFIFKYYTMGWYRQAPGKERELVAAISKNAGSTYYADSVKGRFTISRDNAKNTVYLQMNSLKPEDTAVYYCARTYSTWYYYWGQGTQVTVSS”, the “polyreactivity (PSR sort gate)” value was “high polyreactivity”.
For “QVQLVESGGGLVQAGGSLRLSCAASGFIFLEYAMGWYRQAPGKERELVAAISSRGTRTYYADSVKGRFTISRDNAKNTVYLQMNSLKPEDSAVYYCARVWSQSSNYEYDYWGQGTQVTVSS”, the “polyreactivity (PSR sort gate)” value was “high polyreactivity”.
In the case of “QVQLVESGGGLVQAGGSLRLSCAASGFIFLKYRMGWYRQAPGKEREFVAAISRRGGSTNYADSVKGRFTISRDNEKNTVYLQMNSLKPEDTAVYYCGTDAFAGPVSYYYWGQGTQVSVSS”, the “polyreactivity (PSR sort gate)” value is reported as “high polyreactivity”.
With “QVQLVESGGGLVQAGGSLRLSCAASGFIFLRYGMGWYRQAPGKERELVASIDSSGGSTYADSVKGRFTISRDNEKNTVFLQMKSLKPEDTAVYYCAADYYIVSVRDYWGQGTQVTVSS” the “polyreactivity (PSR sort gate)” value was “low polyreactivity”.
For “QVQLVESGGGLVQAGGSLRLSCAASGFIFLYNAMGWYRQAPGKERELVAAITSSGGTTYYADSVKGRFTISRDNAKNTVYLQMNSLKPEDTAVYYCAARYTGRNGGSTTPEYDYWGQGTQVTVSS”, the “polyreactivity (PSR sort gate)” value was “low polyreactivity”.
With “QVQLVESGGGLVQAGGSLRLSCAASGFIFLYYAMGWYRQAPGKERELVAAITTRGGRTYYADSVKGRFTISRDNAKNTVYLQMNSLIPEDTAVYYCAADHLYWGLEYESWGQGTQVTVSS” the “polyreactivity (PSR sort gate)” value was “low polyreactivity”.
In the case of “QVQLVESGGGLVQAGGSLRLSCAASGFIFNFYAMGWYRQAPGKERELVAAISRNGGSTYYADSVKGRFTISRDNAKNTVYLQMNSLKPEDTAVYYCNAVGSYGDFGYWGQGTQVTVSS”, the “polyreactivity (PSR sort gate)” value is reported as “high polyreactivity”.
For “QVQLVESGGGLVQAGGSLRLSCAASGFIFNHYAMAWYRQAPGKEREFVAAISWSGGSTYYADSVNGRFTISLDNAKNTVYLQMNSLKPEDTAVYYCGASYNGLWHGDYDYWGQGTQVTVSS”, the “polyreactivity (PSR sort gate)” value was “low polyreactivity”.
For “QVQLVESGGGLVQAGGSLRLSCAASGFIFNRYAMGRYRQAPGKERELVAAISSGGNTHYADSVKWRFTISRDNAKNTVLLQMNSLKPEDTAVYYCAKAFRHSTFFAPYDYWGQGSQVTVSS”, the “polyreactivity (PSR sort gate)” value was “low polyreactivity”.
With “QVQLVESGGGLVQAGGSLRLSCAASGFIFNSYAMGWYRQAPGKERELVAAISRRGSSTYYADSVKGRFTISRDNAKNTVYLQMNSLKPEDTAVYYCAKRDRSTSWYLRDYWGQGTQVTVSS” the “polyreactivity (PSR sort gate)” value was “high polyreactivity”.
For “QVQLVESGGGLVQAGGSLRLSCAASGFIFNVYDMGWYRQAPGKERELVAAISTSGSNTYYADSVKVRFTISRDNAKNTVYLQMNSLKPEDTAVYYCNAVRVRVRWHYYAVYYWGQGTQVTVSS”, the “polyreactivity (PSR sort gate)” value was “high polyreactivity”.
With “QVQLVESGGGLVQAGGSLRLSCAASGFIFNYYAMGWYRQAPGKEREFVAAITWRGGSTNYADSVKGRFTISRDNAKNTVYLQMNSLKPEETAVYYCAAYSVWGGSYLALDYWGQGTQVTVSS” the “polyreactivity (PSR sort gate)” value was “low polyreactivity”.
For “QVQLVESGGGLVQAGGSLRLSCAASGFIFNYYAMGWYRQAPGKERELVAAISPSGDNTYYADSVKGRFTISRDNAKNTVYLQMNSLKPEDTAVYYCNKVQGSWRVPYYYWGQGTQVTVSS”, the “polyreactivity (PSR sort gate)” value was “high polyreactivity”.
With “QVQLVESGGGLVQAGGSLRLSCAASGFIFNYYTMGWYRQAPGKEREFVAAIRRSGTRTYYADSVKGRFTISRDNAKNTVYLQMNSLKPEDTAVYYCAADVYRTYGMDYWGQGTQVTVSS” the “polyreactivity (PSR sort gate)” value was “high polyreactivity”.
With “QVQLVESGGGLVQAGGSLRLSCAASGFIFPANAMGWYRQAPGKERQFVAAITRRGGSTYYADSVKGRFTISRDNAKNTVYLKMNSLKPEDTAVYYCAARVLSLYTYYYWGQGTQVTVYS” the “polyreactivity (PSR sort gate)” value was “high polyreactivity”.
With “QVQLVESGGGLVQAGGSLRLSCAASGFIFPGNAMGWYRPAPGKERELVAAISNSGSRTYYADSVKGRLTISRDNAKNTVYLQMNSLIPEDTAVYYCNADVHIRGWPYDYWGQGTQVTVSS” the “polyreactivity (PSR sort gate)” value was “low polyreactivity”.
In the case of “QVQLVESGGGLVQAGGSLRLSCAASGFIFPGNVMGWYRQAPGKERELVAAITWSGGSTYYADSVKGRFTISRDNAKNTVYLQMNSLKPEDTAVYYCNADAFSFFGYLERMEYWGQGTLVTVSS”, the “polyreactivity (PSR sort gate)” value is reported as “low polyreactivity”.
In the case of “QVQLVESGGGLVQAGGSLRLSCAASGFIFPGYAMGWYRQAPGKERELVAAISVSGGSTFYADSVKGRFTISRDNAKYTVYLQMNSLKPEDTAVYYCNARGYTWSYPLGIRVRYDYWGQGTQVTVSS”, the “polyreactivity (PSR sort gate)” value is reported as “high polyreactivity”.
